These are literature values, as cited in article PMC2919054.

The data set addresses ILT7 (Homo sapiens) (UniProt P59901). Nature of the data set: SPR. (Surface plasmon resonance follows binding to a sensor surface in real time, without labels.)
Sequence of UniProt P59901 (P59901 24-499): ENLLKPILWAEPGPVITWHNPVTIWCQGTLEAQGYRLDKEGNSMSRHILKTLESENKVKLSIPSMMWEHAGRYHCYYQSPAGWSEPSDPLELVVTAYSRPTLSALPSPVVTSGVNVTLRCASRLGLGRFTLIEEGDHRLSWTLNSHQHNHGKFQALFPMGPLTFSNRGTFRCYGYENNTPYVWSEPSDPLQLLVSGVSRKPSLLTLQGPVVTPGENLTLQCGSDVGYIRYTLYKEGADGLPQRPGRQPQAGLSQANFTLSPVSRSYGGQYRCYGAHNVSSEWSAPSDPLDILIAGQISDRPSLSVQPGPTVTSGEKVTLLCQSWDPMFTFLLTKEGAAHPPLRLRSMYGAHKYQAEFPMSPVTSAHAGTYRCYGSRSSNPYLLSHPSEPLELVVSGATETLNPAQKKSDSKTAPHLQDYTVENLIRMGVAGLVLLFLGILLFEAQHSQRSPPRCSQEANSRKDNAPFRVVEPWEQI

For the substance BST2 (from UniProt Q10589), the Kd (usually the constant that tells how readily two partners part at equilibrium) is 1000 nM.
